Key:
[1] = biological target: GST-fused eIF4B (GST gene fused to the N-terminus), cell-free synthesized (UniProt P23588)
[2] = biological target: GST-fused stress-induced phosphoprotein 1 (STIP1) (GST gene fused to the N-terminus), cell-free synthesized (UniProt P31948)

GST-fused eIF4B (GST gene fused to the N-terminus), cell-free synthesized, sequence (P23588 whole entry, the tested form may be a part): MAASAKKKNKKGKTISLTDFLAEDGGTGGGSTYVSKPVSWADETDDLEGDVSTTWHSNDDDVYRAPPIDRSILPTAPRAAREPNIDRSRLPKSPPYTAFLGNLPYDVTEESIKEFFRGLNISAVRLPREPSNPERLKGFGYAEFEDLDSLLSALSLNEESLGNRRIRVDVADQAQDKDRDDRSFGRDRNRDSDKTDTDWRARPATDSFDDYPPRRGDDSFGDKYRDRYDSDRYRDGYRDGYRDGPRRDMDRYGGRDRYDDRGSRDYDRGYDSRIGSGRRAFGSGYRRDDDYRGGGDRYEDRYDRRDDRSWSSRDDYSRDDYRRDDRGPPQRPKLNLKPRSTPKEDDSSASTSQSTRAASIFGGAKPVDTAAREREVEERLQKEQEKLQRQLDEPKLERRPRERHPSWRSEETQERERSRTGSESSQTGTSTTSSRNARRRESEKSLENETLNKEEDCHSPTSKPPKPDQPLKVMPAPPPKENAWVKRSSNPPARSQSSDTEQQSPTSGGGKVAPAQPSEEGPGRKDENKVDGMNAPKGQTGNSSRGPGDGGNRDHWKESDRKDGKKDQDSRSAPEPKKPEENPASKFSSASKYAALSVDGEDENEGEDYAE

## human CaMKIIδ protein (calmodulin kinase II delta), synthesized in a wheat embryo cell-free protein synthesis system
[1]
  in vitro phosphorylation assay ([γ-32P]ATP, GST-fused substrate on glutathione resin, SDS-PAGE autoradiography): there was reproduced the reaction in which GST-fused eIF4B and STIP1 were phosphorylated by CaMKIIδ
[2]
  in vitro phosphorylation assay ([γ-32P]ATP, GST-fused substrate on glutathione resin, SDS-PAGE autoradiography): there was reproduced the reaction in which GST-fused eIF4B and STIP1 were phosphorylated by CaMKIIδ

Reference: patent US20070134734
